Experimental data from article PMC5389554.

B1: AAATTAGA probe (il-6, ccl4) (dsDNA)
DNA 1: AAATTAGA
DNA 2: TCTAATTT
B2: Mut.3 (dsDNA)
DNA 1: AGTTGCCA
DNA 2: TGGCAACT
B3: 26-nt-CTGAAAAA (dsDNA)
DNA 1: GGAACTAGTCTGAAAAAGAAACTAAC
DNA 2: GTTAGTTTCTTTTTCAGACTAGTTCC
B4: Mut.6 (dsDNA)
DNA 1: CTGGGGGA
DNA 2: TCCCCCAG
B5: AAATTAGT probe (il-12b, ccl5, cnbp) (dsDNA)
DNA 1: AAATTAGT
DNA 2: ACTAATTT
B6: NF-κB probe (dsDNA)
DNA 1: AATGTGGGATTTTCCCATGA
DNA 2: TCATGGGAAAATCCCACATT
B7: 26-nt-AAATTAGT (dsDNA)
DNA 1: TGTAAACAGAAATTAGTATCTCTGCC
DNA 2: GGCAGAGATACTAATTTCTGTTTACA
B8: AGTTGAGA probe (ccl4) (dsDNA)
DNA 1: AGTTGAGA
DNA 2: TCTCAACT
B9: CTGAAAAA probe (il-6, il-1b, ccl9, cnbp) (dsDNA)
DNA 1: CTGAAAAA
DNA 2: TTTTTCAG
B10: Mut.2 (dsDNA)
DNA 1: AGTGGAGA
DNA 2: TCTCCACT
B11: Mut.5 (dsDNA)
DNA 1: GGGAAAAA
DNA 2: TTTTTCCC

target: T1, GST-CNBP (isoform 1, WT) (mouse, UniProt P53996 1-178); test: EMSA
T1 sequence (P53996 whole entry, canonical isoform): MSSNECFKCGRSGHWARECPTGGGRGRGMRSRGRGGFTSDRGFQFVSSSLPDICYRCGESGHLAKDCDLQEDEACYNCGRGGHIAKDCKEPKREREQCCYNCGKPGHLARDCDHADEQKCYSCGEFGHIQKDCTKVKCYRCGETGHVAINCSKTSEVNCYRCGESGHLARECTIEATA

Question: Does B1 bind?
Answer: binds

Question: Does B2 bind?
Answer: no binding

Question: Does GGAGGAGAGAGAGAGAGAGAGAGAGA (mixed) [G-rich 26-nt (strandedness in assay not stated; antisense S140 also listed)] bind?
Answer: binds

Question: Does B3 bind?
Answer: binds

Question: Does B4 bind?
Answer: no binding

Question: Does B5 bind?
Answer: binds

Question: Does B6 bind?
Answer: no binding

Question: Does B7 bind?
Answer: binds

Question: Does B8 bind?
Answer: binds

Question: Does B9 bind?
Answer: binds

target: GST-CNBP Δ54-178 (CNBP-1-53) (mouse, UniProt P53996 1-53, del54-178); test: EMSA
Sequence (P53996 1-53, stated change not applied): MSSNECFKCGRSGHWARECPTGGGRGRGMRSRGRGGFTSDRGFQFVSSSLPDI

Question: Does B9 bind?
Answer: binds

target: T1, GST-CNBP (isoform 1, WT); test: EMSA; remark: another data set of the same source

Question: B10 was tested. Which binding signal did it give?
Answer: > 1 fold of AGTTGAGA

target: T1, GST-CNBP (isoform 1, WT); test: EMSA; remark: another data set of the same source

Question: How did the binding signal turn out when B11 was run?
Answer: > 1 fold of CTGAAAAA
